For 1 substance, EC50 results are on record in publication PMC9851377.

For the assay, the target named is CD3 on T lymphocytes (human (endogenous in T lymphocytes from PBMCs)) (UniProt P07766). The assay is described as follows: FACS; dimer; binding to T lymphocytes. (In general: Flow cytometry measures light scatter and fluorescence of single cells or particles in a stream.)
Chain of UniProt P07766 (P07766 23-207): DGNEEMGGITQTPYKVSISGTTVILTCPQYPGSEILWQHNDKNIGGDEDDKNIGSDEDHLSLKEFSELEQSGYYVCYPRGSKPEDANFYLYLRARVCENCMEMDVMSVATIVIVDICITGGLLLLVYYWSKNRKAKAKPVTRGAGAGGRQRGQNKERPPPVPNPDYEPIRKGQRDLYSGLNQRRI

Regarding “dimeric γδ_(ECTO)-αCD3 (AJ8 TCR, 3(G4S) linker), purified dimer fraction (from UniProt Q99603)”, the EC50 (commonly the midpoint of the concentration-response curve) is 0.17 µg/mL.
